Consider four molecules from publication PMC6114107, “Characterization and validation of Entamoeba histolytica pantothenate kinase as a novel anti-amebic drug target” (International Journal for Parasitology: Drugs and Drug …, 2018).

Format in all cases: biochemical, Entamoeba histolytica
One series deals with recombinant EhPanK. Description: Regulation of EhPanK by CoA, acetyl CoA and malonyl CoA (double-reciprocal plots). To be noted: inhibitor 0, 0.5, 2 mM; for Mechanism of inhibition with respect to ATP: various ATP, 0.2 mM pantothenate; for Mechanism of inhibition with respect to pantothenate: various pantothenate, 100 μM ATP. The text has this: PanK from other organisms was reported to be negatively regulated by allosteric inhibition with CoA, acetyl CoA, and malonyl CoA ([Calder et al., 1999]; [Takagi et al., 2010]; [Vallari et al., 1987]). […] The mechanisms of inhibition by acetyl CoA were not clear but seemed to be the mixed type with respect to ATP and pantothenate (Fig. 3).
Fig. 2 Effect of CoA, acetyl CoA, and malonyl CoA on the pantothenate kinase activities. Relative activities of EhPanK in the presence of various concentrations of inhibitors to those without inhibitors are shown. […] The assays were carried out three times independently, and the results are shown as means ± SEM of triplicates.
Fig. 3 Double-reciprocal plots of the recombinant EhPanK in the presence of CoA (A and B), malonyl CoA (C and D), or acetyl CoA (E and F). The enzymatic activities were determined with various concentrations of ATP and 0.2 mM pantothenate (A, C, and E) or various concentrations of pantothenate and 100 μM ATP (B, D, and F), in the presence of three concentrations of inhibitors (0, 0.5, and 2 mM). Data are shown in means ± SEM of triplicate analyses.

Substrate in series [1]: CC(C)(CO)[C@@H](O)C(=O)NCCC(=O)O
Description: Kinetic parameters of recombinant EhPanK for its substrates. To be noted: other: apparent Km at saturating concentration of the other substrate, 37 °C, pH 6, mean ± SEM. The procedure:
(§1) PanK and DPCK activities in the cell lysate were measured with coupled assays using ADP Hunter™ Plus Assay kit (DiscoverX, US) according to the manufacturer's instructions. […] Kinetic data were estimated by curve fitting with the Michaelis–Menten equation using GraphPad Prism (GraphPad Software Inc., San Diego, USA). This experiment was repeated three times in triplicate with proteins isolated from two independent extractions, and kinetic values are presented as the means ± S.E. for three independent kinetic assays.
(§2) Table 1 summarizes the apparent Km, Vmax, and Kcat values for EhPanK using pantothenate and ATP as substrates.
(§3) Fig. S5. Optimum pH and temperature (A) and initial rate plots (B, C) of EhPanK. B) The velocity of EhPanK reaction at various pantothenate concentrations in the presence of 25, 50, or 100 μM ATP. C). The velocity of EhPanK reaction at various ATP concentrations in the presence of 8, 64, or 128 μM pantothenate. […] Assays for panes B and C were conducted at 37 °C at pH 6. Data are shown in mean ± SEM of three replicates.

Substrate in series [2]: Nc1ncnc2c1ncn2[C@@H]1O[C@H](COP(=O)(O)OP(=O)(O)OP(=O)(O)O)[C@@H](O)[C@H]1O
Described as above. To be noted: other: apparent Km at saturating concentration of the other substrate, 37 °C, pH 6, mean ± SEM. The method, then:
as §1, §2, §3

On to `CC(C)(COP(=O)(O)OP(=O)(O)OC[C@H]1O[C@@H](n2cnc3c(N)ncnc32)[C@H](O)[C@@H]1OP(=O)(O)O)[C@@H](O)C(=O)NCCC(=O)NCCS` [CoA, Coenzyme A], for which, in the series on recombinant EhPanK, the “Mechanism of inhibition with respect to ATP” value is given as “competitive” and the “Mechanism of inhibition with respect to pantothenate” value is recorded as “uncompetitive”.
The matching figures for `CC(=O)SCCNC(=O)CCNC(=O)[C@H](O)C(C)(C)COP(=O)(O)OP(=O)(O)OC[C@H]1O[C@@H](n2cnc3c(N)ncnc32)[C@H](O)[C@@H]1OP(=O)(O)O` [acetyl CoA]: “mixed type” and “mixed type”.
On to `CC(C)(COP(=O)(O)OP(=O)(O)OC[C@H]1O[C@@H](n2cnc3c(N)ncnc32)[C@H](O)[C@@H]1OP(=O)(O)O)[C@@H](O)C(=O)NCCC(=O)NCCSC(=O)CC(=O)O` [malonyl CoA], for which, in the series on recombinant EhPanK, the “Mechanism of inhibition with respect to ATP” value is given as “competitive” and the “Mechanism of inhibition with respect to pantothenate” value was “non-competitive”.

B1: E. histolytica pantothenate kinase (Entamoeba histolytica HM-1:IMSS) (protein)
chain: MSQPSHSIPSKHSVLSNEDIEHDDHITHTFEQYEFTKTQSPLPLNGVRRRTAPLSADMGGTMTKIVFWIPGDTDIDLPKYVEPEESVMSGFDLYPDPVLKVTMNSKGENELCFMKFPTSQIPEFIHYAKTSKLKEIYGIGNLQILNVTGGGAYKFANLLKDEMDLEVRQQDEMRCLVLGVNFLLLCCQEKLCFRFVNKTKLYREVTPEIFPYLLVNVGSGVSILKVTAPEKYERVSGSLIGGGTFWGLCCLLTNYKSFDEMLQAAQYGQHQNVDLYVKDIYGRCYDSVGLAADMMASSFGKIQKVPCGEAKNHYSEADIAQGLMMMVCGSIAHLGFELTKLHHINRIFYTGGFVAHNPVVWEAITTMLTTWSSGSVDANFLEYDGYFGSIGALLLSEYEEELM
Regarding B1, in series [1], the Km (in general, the substrate concentration at which the rate is half of its maximum) was 53.2 ± 7.1 µM; the Vmax (commonly the top rate of the reaction or transport when substrate is in excess) was 2.79 µmol/min/mg; the kcat (in general, the maximal rate divided by the concentration of active sites) turned out to be 2.11 ± 0.075 s⁻¹; the kcat/Km (usually the second-order rate constant that governs catalysis at low substrate concentration) was found to be 39700 ± 1330 M⁻¹ s⁻¹. In addition, in series [2], the Km amounted to 41.4 ± 3.9 µM, the maximal velocity (Vmax) is 2.84 µmol/min/mg, the kcat stood at 2.15 ± 0.153 s⁻¹ and the kcat/Km was 51800 ± 3670 M⁻¹ s⁻¹.
